Test results taken from patent US20030008355A1 (published 2003).

Tests used:
[1] = target: carcinoembryonic antigen (CEA) (UniProt P06731); assay: acid-wash EIA on CEA-coated plates, citrate pH 2.5, 1 h 37 C
[2] = target: T1, carcinoembryonic antigen (CEA) (UniProt P06731 35-685, limits assumed); assay: acid-wash EIA on CEA-coated plates, citrate pH 2.0, 1 h 37 C
T1 construct: Antigen coated on microtitre plates
T1 sequence (looked up): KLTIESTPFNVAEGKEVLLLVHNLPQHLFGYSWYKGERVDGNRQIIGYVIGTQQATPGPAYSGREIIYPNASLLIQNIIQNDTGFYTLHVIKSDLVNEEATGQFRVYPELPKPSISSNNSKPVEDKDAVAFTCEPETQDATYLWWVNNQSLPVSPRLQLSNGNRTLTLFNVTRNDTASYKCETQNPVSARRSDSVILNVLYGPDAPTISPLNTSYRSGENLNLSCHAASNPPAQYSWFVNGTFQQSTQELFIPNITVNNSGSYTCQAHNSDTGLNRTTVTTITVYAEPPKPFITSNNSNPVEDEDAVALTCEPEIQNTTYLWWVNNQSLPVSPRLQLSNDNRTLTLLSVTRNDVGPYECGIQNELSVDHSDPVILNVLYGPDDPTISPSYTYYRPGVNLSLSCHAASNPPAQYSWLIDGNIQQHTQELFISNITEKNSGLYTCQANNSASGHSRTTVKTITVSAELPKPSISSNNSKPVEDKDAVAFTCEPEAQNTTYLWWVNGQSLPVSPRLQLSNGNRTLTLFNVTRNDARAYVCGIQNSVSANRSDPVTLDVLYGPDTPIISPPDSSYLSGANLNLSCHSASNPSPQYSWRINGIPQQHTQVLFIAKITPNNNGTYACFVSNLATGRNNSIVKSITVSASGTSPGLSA
Experimental: (§1) Carcinoembryonic antigen (CEA)-coated microtitre plates were prepared as described previously. Single-chain Fv samples (6H9) were diluted to a range of concentrations between 1 ng/ml and 100 ng/ml in PBS at pH 7.2 containing 1% bovine serum albumin (BSA). 100 μl samples were added to the microtitre plate wells and incubated for 1 hour at 37° C. The plates were then washed, 200 μl per well of citrate added, and the plates incubated for 1 hour at 37° C. In this case, the acid preparations were made using a stock solution of 100 mM citrate diluted to pH values of 4.0, 3.5, 3.0, 2.5 and 2.0 in the reaction mixture. PBS at pH 7.2 was used as a reference control. The plates were then washed and 100 μl per well of mouse anti-tetra-histidine antibody (Qiagen) (100 ng/ml diluted in PBS at pH 7.2 with 1% BSA) added and incubated for 1 hour at 37° C. […] The plates were then washed, treated with PNPP as described previously and the absorbance measured using a spectrophotometer at 405 nm.
(§2) As a control for acid resistance, sFv samples were incubated with PBS at pH 7.2 to generate an EIA response curve for the SFv samples. In the linear region, a concentration of 10-20 ng/ml of the SFv sample gave an absorbance (A₄₀₅) of 1.0-1.5 and was therefore used to determine the amount of antibody bound in the acid washed samples as a percentage of the amount bound in the reference sample.

[3] = target: T1, carcinoembryonic antigen (CEA); assay: acid-wash EIA on CEA-coated plates, citrate pH 2.5, 1 h 37 C
Experimental: as §1, §2

[4] = target: T1, carcinoembryonic antigen (CEA); assay: acid-wash EIA on CEA-coated plates, citrate pH 3.5, 1 h 37 C
Experimental: as §1, §2

[5] = target: T1, carcinoembryonic antigen (CEA); assay: acid-wash EIA on CEA-coated plates, HCl pH 2, 1 h 37 C, against standard EIA
Experimental: Maxisorb assay plates (NUNC) were coated with CEA (0.4 μg/ml in phosphate-buffered saline at pH 7.2), 100 μl per well and left overnight at 4° C. The plates were then washed three times using phosphate buffered saline at pH 7.2 with 0.01% Tween 20 detergent. Any remaining reactive sites on the plates were blocked by the addition of 200 μl per well of 0.2% fat-free milk protein in PBS at pH 7.2 at 37° C. for ½ hour. The plates were then washed in PBS as described above and 45 μl of the antibody samples were added to the wells of the plates. The samples were incubated for one hour at 37° C. and then washed as described previously. Bound antibody was detected using alkaline phosphatase-conjugated donkey anti-sheep antibody (Sigma A5187 diluted 1/5000 in PBS at pH 7.2 with 1% BSA). The plates were then washed and 100 μl per well of PNPP (Sigma N2770) solution was added. Absorbance was measured using a spectrophotometer at 405 nm with phosphate buffered saline as a control.
Coating and binding of antibody samples was as described for the standard EIA above. However, after incubation with the antibody samples, the plates were washed and 200 μl per well of HCl (10 mM Stock solution) at pH 2 was added for one hour at 37° C. After three washes the antibody remaining bound to antigen was detected using alkaline phosphatase-conjugated donkey anti-sheep antibody and PNPP as described above. […]

mouse-derived anti-carcinoembryonic antigen single-chain Fv MFE (scFv)
percent antigen binding retained at pH 2.5 relative to pH 7.2 [1]: < 5%

B1: 6H9 whole antibody (sheep monoclonal antibody secreted by hybridoma 6H9) (antibody, V domains shown)
VH: QVQLQESGPSLVKPSQTLSLTCTVSGFSLTKYGVSWVRQAPGKALEWLGGVSSGALTAYNTALQSRLSVTRDTSKSQFSLSLSSVTTEDTAIYYCAKSVNGDSVPYGLDYWSPGLLLTVSS
VL: QDVLTQPSSVSGSLGQRVSITCSGSSSNIGGNAYVGWYQQVPGSAPRLLISATTDRASGIPDRFSGSRSGNTATLTISSLQAEDEADYYCASYQSTYSGVFGSGTRLTVLG
notes: Whole sheep monoclonal antibody
percent antigen binding retained at pH 2.0 relative to pH 7.2 [2]: > 50%
percent antigen binding retained at pH 2.5 relative to pH 7.2 [3]: > 60%
percent antigen binding retained at pH 3.5 relative to pH 7.2 [4]: > 70%
retention of binding in acid-washed EIA (pH 2) relative to non-acid washed EIA [5]: > 50%

B2: mouse-derived anti-carcinoembryonic antigen whole antibody A5B7 (antibody, from another filing, V domains shown)
VH: EVKLVESGGGLVQPGGSLRLSCATSGFTFTDYYMNWVRQPPGKALEWLGFIGNKANGYTTEYSASVKGRFTISRDKSQSILYLQMNTLRAEDSATYYCTRDRGLRFYFDYWGQGTTLTVSS
VL: QTVLSQSPAILSASPGEKVTMTCRASSSVTYIHWYQQKPGSSPKSWIYATSNLASGVPARFSGSGSGTSYSLTISRVEAEDAATYYCQHWSSKPPTFGGGTKLEIK
percent antigen binding retained at pH 2.5 relative to pH 7.2 [1]: < 5%

B3: 6H9 single-chain Fv (scFv)
scFv: QVQLQESGPSLVKPSQTLSLTCTVSGFSLTKYGVSWVRQAPGKALEWLGGVSSGALTAYNTALQSRLSVTRDTSKSQFSLSLSSVTTEDTAIYYCAKSVNGDSVPYGLDYWSPGLLLTVSSGGGGSGGGGSGGGGSQDVLTQPSSVSGSLGQRVSITCSGSSSNIGGNAYVGWYQQVPGSAPRLLISATTDRASGIPDRFSGSRSGNTATLTISSLQAEDEADYYCASYQSTYSGVFGSGTRLTVLGHHHHHH
notes: VH-(Gly4Ser)3-VL with C-terminal hexa-histidine tag, expressed in E. coli HB 2151; also called 6H9 SFv; sFv
percent antigen binding retained at pH 2.0 relative to pH 7.2 [2]: > 50%
percent antigen binding retained at pH 2.5 relative to pH 7.2 [3]: > 60%
percent antigen binding retained at pH 3.5 relative to pH 7.2 [4]: > 70%
